From paper PMC11046300 (The Journal of Biological Chemistry, 2024)

T1: GST-NF2 FERM domain (1-341 aa) (human, UniProt P35240 1-341)
T1 sequence (looked up): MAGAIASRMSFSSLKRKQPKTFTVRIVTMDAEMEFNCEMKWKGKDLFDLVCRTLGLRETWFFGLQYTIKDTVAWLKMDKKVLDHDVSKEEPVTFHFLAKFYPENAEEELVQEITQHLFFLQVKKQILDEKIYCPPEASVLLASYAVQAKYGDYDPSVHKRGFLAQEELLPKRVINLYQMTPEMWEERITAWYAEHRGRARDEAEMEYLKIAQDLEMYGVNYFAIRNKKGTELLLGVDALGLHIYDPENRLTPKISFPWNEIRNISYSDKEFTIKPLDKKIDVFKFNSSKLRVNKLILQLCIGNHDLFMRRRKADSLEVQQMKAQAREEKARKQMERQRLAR

T2: GST-tagged full-length NF2 (human, UniProt P35240 1-595)
T2 sequence (looked up): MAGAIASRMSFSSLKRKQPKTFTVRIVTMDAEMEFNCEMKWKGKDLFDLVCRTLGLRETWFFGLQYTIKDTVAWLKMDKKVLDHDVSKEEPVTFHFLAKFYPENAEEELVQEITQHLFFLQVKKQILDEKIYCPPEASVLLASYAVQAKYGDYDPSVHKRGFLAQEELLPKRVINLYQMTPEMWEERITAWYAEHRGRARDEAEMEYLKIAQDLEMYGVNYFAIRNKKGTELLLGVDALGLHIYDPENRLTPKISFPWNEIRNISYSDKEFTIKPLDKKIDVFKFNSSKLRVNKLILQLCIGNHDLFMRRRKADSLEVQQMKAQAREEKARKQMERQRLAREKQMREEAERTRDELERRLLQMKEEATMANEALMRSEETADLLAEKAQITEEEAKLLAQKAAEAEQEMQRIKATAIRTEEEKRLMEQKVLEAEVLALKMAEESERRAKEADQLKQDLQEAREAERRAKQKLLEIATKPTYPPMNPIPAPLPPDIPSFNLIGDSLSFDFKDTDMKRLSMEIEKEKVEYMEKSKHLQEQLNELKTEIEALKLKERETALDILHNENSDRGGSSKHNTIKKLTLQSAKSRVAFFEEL

T3: GST-NF2 C-terminal half (342-595 aa) (human, UniProt P35240 342-595)
T3 sequence (looked up): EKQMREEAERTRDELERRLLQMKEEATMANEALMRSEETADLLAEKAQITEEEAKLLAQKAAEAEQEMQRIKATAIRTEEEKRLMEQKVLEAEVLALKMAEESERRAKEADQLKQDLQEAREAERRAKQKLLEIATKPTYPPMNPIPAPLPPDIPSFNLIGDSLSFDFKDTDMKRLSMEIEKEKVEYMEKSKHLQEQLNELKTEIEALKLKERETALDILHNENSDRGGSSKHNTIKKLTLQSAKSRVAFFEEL

T4: MBP-NF2 A585W (human, UniProt P35240 18-595, A585W)
T4 sequence (looked up): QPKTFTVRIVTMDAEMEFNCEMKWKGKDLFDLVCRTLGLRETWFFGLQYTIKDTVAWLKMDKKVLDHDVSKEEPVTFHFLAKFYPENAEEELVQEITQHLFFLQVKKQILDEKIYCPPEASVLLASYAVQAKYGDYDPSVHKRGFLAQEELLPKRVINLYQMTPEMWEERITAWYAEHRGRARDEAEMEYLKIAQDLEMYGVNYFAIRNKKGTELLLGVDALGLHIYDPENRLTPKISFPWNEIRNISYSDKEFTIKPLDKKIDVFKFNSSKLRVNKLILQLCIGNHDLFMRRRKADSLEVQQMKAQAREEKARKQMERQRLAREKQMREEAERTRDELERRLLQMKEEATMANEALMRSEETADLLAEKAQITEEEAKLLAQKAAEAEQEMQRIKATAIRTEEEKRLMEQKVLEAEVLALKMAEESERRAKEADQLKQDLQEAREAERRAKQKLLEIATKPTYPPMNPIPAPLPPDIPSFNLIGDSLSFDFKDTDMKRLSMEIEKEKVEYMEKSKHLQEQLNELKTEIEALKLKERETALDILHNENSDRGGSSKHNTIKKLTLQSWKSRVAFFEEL

T5: MBP-NF2 (18-595) (human, UniProt P35240 18-595)
T5 sequence (looked up): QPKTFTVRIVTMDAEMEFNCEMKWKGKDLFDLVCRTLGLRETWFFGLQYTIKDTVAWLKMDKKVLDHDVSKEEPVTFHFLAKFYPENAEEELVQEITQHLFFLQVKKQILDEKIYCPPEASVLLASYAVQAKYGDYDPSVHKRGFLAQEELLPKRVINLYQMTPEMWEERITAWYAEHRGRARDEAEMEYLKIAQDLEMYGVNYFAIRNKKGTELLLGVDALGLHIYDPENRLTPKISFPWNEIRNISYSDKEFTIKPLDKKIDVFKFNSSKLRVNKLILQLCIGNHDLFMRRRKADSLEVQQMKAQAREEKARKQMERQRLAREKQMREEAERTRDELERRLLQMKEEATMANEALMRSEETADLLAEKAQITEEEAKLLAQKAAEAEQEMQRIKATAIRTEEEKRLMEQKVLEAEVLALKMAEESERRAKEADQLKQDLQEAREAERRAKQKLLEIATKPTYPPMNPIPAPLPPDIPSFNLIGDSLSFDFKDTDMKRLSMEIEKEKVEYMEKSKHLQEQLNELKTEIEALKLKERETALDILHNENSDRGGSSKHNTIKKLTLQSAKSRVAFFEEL

B1: His-TEAD4-YBD (domain or fragment, human, UniProt Q15561 217-434, looked up)
chain: RSVASSKLWMLEFSAFLEQQQDPDTYNKHLFVHIGQSSPSYSDPYLEAVDIRQIYDKFPEKKGGLKDLFERGPSNAFFLVKFWADLNTNIEDEGSSFYGVSSQYESPENMIITCSTKVCSFGKQVVEKVETEYARYENGHYSYRIHRSPLCEYMINFIHKLKHLPEKYMMNSVLENFTILQVVTNRDTQETLLCIAYVFEVSASEHGAQHHIYRLVKE

Legend:
Assay in all cases: pull-down
His-TEAD4-YBD = molecular target: B1
[1] = molecular target: T1, GST-NF2 FERM domain (1-341 aa)
[2] = molecular target: T2, GST-tagged full-length NF2
[3] = molecular target: T3, GST-NF2 C-terminal half (342-595 aa)
MBP-NF2 A585W = molecular target: T4, MBP-NF2 A585W
MBP-NF2 (18-595) = molecular target: T5, MBP-NF2 (18-595)

| Binder | binding result (His-TEAD4-YBD) | binding result [1] | binding result [2] | binding result [3] | binding result (MBP-NF2 A585W) | binding result (MBP-NF2 (18-595)) |
| --- | --- | --- | --- | --- | --- | --- |
| GST-NF2-507-595 (domain or fragment, human, UniProt P35240 507-595, looked up) FDFKDTDMKRLSMEIEKEKVEYMEKSKHLQEQLNELKTEIEALKLKERETALDILHNENSDRGGSSKHNTIKKLTLQSAKSRVAFFEEL | binds | – | – | – | – | – |
| SUMO-His-tagged TEAD4 YBD domain (217-434) (domain or fragment, human, UniProt Q15561 217-434, looked up) RSVASSKLWMLEFSAFLEQQQDPDTYNKHLFVHIGQSSPSYSDPYLEAVDIRQIYDKFPEKKGGLKDLFERGPSNAFFLVKFWADLNTNIEDEGSSFYGVSSQYESPENMIITCSTKVCSFGKQVVEKVETEYARYENGHYSYRIHRSPLCEYMINFIHKLKHLPEKYMMNSVLENFTILQVVTNRDTQETLLCIAYVFEVSASEHGAQHHIYRLVKE | – | binds | binds | binds | – | – |
| B1 | – | binds | – | – | binds | binds |
